Experimental data published in patent US20140147464A1, “METHOD AND COMPOSITION FOR INDUCING AUTOPHAGY” (NATIONAL YANG-MING UNIVERSITY, priority 2012, published 2014).

Tests used:
[1] = system: NGF; assay: NGF expression and release in primary astrocyte cultures (RT-PCR, real time PCR, western blot); assay type: cell-based, C57BL/6J mice; conditions: primary astrocytes, 6 hours
Method: Astrocyte-enriched cultures were prepared from post-natal one day-old C57BL/6J mice obtained from the Animal Center at the National Yang Ming University, Taiwan. Briefly, cortical tissue was digested with trypsin. The resultant dissociated cells were suspended in DMEM containing 10% FBS and incubated in 100-mm culture dishes. After 3 days in culture, cells were re-fed with fresh 10% FBS/DMEM and maintained at 37° C. for an additional 3 days. The cells were dissociated with trypsin, suspended in 10% FBS/DMEM and incubated in a 10-cm dish for 7-8 days prior to use. Astrocytes prepared by this method consisted of approximately 90-95% astrocytes as determined by immunochemical staining with an antibody against glial fibrillary acidic protein (GFAP), a specific marker for astrocytes. Neural stem cell cultures were prepared from 1 day-old C57BL/6J mice. Cells obtained by trypsinization of cortical tissue were suspended in 100 ml DMEM/F12 medium (2×10^5 cells/ml) containing 1% N2, 20 ng/ml EGF, 20 ng/ml bFGF and […] BSA in 1 L roller bottles for 7 days for the formation of neurospheres. The neurospheres were examined with an antibody against nestin, a specific marker for neural stem cells. […]
RNA was prepared using RNA-Bee™ RNA isolation reagent (Tel-test, Friendswood, Tex.). […] Relative gene expression levels were calculated with the 2^−ΔΔCT method. […]

[2] = system: PC12 cells; assay: PC12 bioassay of neurite outgrowth with astrocyte-conditioned medium; assay type: cell-based; conditions: 24 h
Method: To evaluate neurite outgrowth, PC12 cells were plated at a low density (2×10^4 cells per cm^2) onto poly-D lysine-coated 24-well plates. After 24 h, the adherent PC12 cells were washed with PBS and incubated with conditioned medium derived from either untreated or Ganoderma lucidum-treated astrocyte cultures to monitor neurite outgrowth (using a low serum condition in DMEM containing 1% FBS). Eight to ten images per group were photographed under light microscopy, and the percentage of cells with neurites that exceeded (the percentage of cells with neurites exceeding) the diameter of cell body was analyzed by examining 100-200 cells per image. Images were analyzed by an operator blinded to the experimental conditions. For the preparation of ACM, astrocytes were treated with Ganoderma lucidum for 24 hours and were washed with PBS and fed with low serum medium (without Ganoderma lucidum). After 24 hours, the medium was centrifuged at 200×g for 20 mins to remove cell debris, and the supernatant was collected as the ACM and used immediately. Murine NGF 100 ng/ml (Promega Biotech Co., Ltd, USA) was used as positive control.

[3] = system: mHtt74Q-expressing PC12 cell; assay: Autophagy in HD cell model: MDC staining and western blot of LC3-II; assay type: cell-based
Method: Mammalian expression vectors comprising EGFP (pEGFP-C1, Clontech) fused at its C terminus with an HD gene exon 1 fragment with 74 polyglutamine repeats (mHtt-74Q) was a gift from Dr. David C. Rubinsztein's laboratory. The PC12 stable cells were maintained in 100 µg/ml hygromycin in standard medium consisting of DMEM with 100 U/ml penicillin/streptomycin, 2 mM L-glutamine, 10% heat-inactivated horse serum, 5% FBS and 200 ug/ml G418 at 37° C., 5% CO2. The cells were seeded at 2×10^5 per well in 12-well plates and were induced expression of mHtt-74Q with 200 ng/ml doxycycline for 24 h. The expression of transgenes was switched off by removing doxycycline from the medium. […] They were either fixed with 1% paraformaldehyde for 20 mins for FACS analysis (BD Biosciences) of EGFP fluorescence of mHtt-74Q followed by analysis of mean fluorescence intensity of 10,000 events by Cellquest software (BD Biosciences) or processed for real time PCR analysis. […] The samples were mounted and analyzed using a fluorescence microscope (Olympus IX-70 and POT2, USA) with excitation wave of 335 nm and emission of 525 nm. The intensity of the color staining reflected the level of autophagic activity, which was measured with an Image-Pro Plus Analysis system (Media Cybernetics, Bethesda, USA). To quantify MDC punctae, at least 4 random fields were imaged and the average number of punctae area per cell was calculated. […]

[4] = system: mHtt74Q-expressing PC12 cell; assay: mHtt-74Q aggregation in HD cell model by FACS analysis of EGFP fluorescence; assay type: cell-based
Method: Mammalian expression vectors comprising EGFP (pEGFP-C1, Clontech) fused at its C terminus with an HD gene exon 1 fragment with 74 polyglutamine repeats (mHtt-74Q) was a gift from Dr. David C. Rubinsztein's laboratory. The PC12 stable cells were maintained in 100 µg/ml hygromycin in standard medium consisting of DMEM with 100 U/ml penicillin/streptomycin, 2 mM L-glutamine, 10% heat-inactivated horse serum, 5% FBS and 200 ug/ml G418 at 37° C., 5% CO2. The cells were seeded at 2×10^5 per well in 12-well plates and were induced expression of mHtt-74Q with 200 ng/ml doxycycline for 24 h. The expression of transgenes was switched off by removing doxycycline from the medium. […] They were either fixed with 1% paraformaldehyde for 20 mins for FACS analysis (BD Biosciences) of EGFP fluorescence of mHtt-74Q followed by analysis of mean fluorescence intensity of 10,000 events by Cellquest software (BD Biosciences) or processed for real time PCR analysis. […] The samples were mounted and analyzed using a fluorescence microscope (Olympus IX-70 and POT2, USA) with excitation wave of 335 nm and emission of 525 nm. The intensity of the color staining reflected the level of autophagic activity, which was measured with an Image-Pro Plus Analysis system (Media Cybernetics, Bethesda, USA). To quantify MDC punctae, at least 4 random fields were imaged and the average number of punctae area per cell was calculated.

Ganoderic acid C2
NGF mRNA expression [1]: particularly marked | neurite outgrowth activity [2]: particularly marked

B1: NGF: Nerve growth factor; murine NGF (Promega) used as positive control (protein, UniProt P01139 122-241, looked up)
Beta-nerve growth factor: SSTHPVFHMGEFSVCDSVSVWVGDKTTATDIKGKEVTVLAEVNINNSVFRQYFFETKCRASNPVESGCRGIDSKHWNSYCTTTHTFVKALTTDEKQAAWRFIRIDTACVCVLSRKATRRG
modifications: Beta-nerve growth factor
notes: Nerve growth factor; murine NGF (Promega) used as positive control
MDC intensity [3]: enhanced MDC stain | autophagic activity (MDC staining, LC3-II western blot) [3]: up-regulated | mHtt-74Q accumulation ([4]; HD cell model, FACS analysis): reduction in mHtt-74Q accumulation | fluorescence distribution of cells expressing mHtt-74Q (aggregates) ([4]; NGF 50 ng/ml): reduced aggregates
